According to patent US20100183625A1 (published 2010):

Target: T1, human plasma kallikrein (human, UniProt P03952 20-390; P03952 391-638)
T1 construct: also called pKal; human pKal
Test: ELISA; signal on biotinylated plasma kallikrein divided by signal on streptavidin background
Source text: Abbreviations used: “T/B” is the ELISA signal obtained using of the “target” (biotinylated plasma kallikrein) divided by the ELISA signal of the “background” (streptavidin); both of which were coated on microtiter plates. “nd” is not determined. The symbol “q” refers to the amber suppressible stop codon (TAG), which is translated as glutamine (Q) in strains of E. coli such as the TG1 cells that were used to express the Fab fragments.

T1 sequence (P03952 20-390, chain 1 of 2): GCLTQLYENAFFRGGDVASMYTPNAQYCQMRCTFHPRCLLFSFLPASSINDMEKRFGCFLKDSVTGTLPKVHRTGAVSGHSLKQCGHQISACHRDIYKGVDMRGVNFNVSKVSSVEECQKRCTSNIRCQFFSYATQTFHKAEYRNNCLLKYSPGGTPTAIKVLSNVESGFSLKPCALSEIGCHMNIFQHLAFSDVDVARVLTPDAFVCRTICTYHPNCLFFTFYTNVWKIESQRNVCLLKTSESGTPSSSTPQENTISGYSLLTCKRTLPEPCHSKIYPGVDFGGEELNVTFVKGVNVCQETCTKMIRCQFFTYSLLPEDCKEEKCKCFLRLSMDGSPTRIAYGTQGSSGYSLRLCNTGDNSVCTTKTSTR
T1 sequence (P03952 391-638, chain 2 of 2): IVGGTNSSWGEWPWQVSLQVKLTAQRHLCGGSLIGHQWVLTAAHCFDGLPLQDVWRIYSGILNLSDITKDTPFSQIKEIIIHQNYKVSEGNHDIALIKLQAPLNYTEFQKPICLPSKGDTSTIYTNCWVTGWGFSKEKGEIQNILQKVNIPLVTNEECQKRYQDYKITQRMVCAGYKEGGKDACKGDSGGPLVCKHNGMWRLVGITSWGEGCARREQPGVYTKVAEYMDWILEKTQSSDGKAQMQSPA

B1: M7-E07 (antibody, V domains shown)
VH: EVQLLESGGGLVQPGGSLRLSCAASGFTFSWYLMIWVRQAPGKGLEWVSYIYPSGGFTYYADSVKGRFTISRDNSKNTLYLQMNSLRAEDMAVYYCARTEGPLSWGYGMDVWGQGTTVTVSS
VL: not shown
  ELISA (T/B): 45.7 T/B ratio

B2: M8-A09 (antibody, V domains shown)
VH: EVQLLESGGGLVQPGGSLRLSCAASGFTFSTYFMLWVRQAPGKGLEWVSSIYPSGGNTVYADSVKGRFTISRDNSKNTLYLQMNSLRAEDTAVYYCARAASPVRNYYYYGMDVWGQGTTVTVSS
VL: QCELTQPPSESVSPGQTANITCSGDKLGNKYAYWYQQKPGQSPVLVIYQDNNRPSGIPERFSGSNSGNTATLTISGTQAIDEANYYCQAWDSRTVVFGGGTKLTVL
  ELISA (T/B): 5.4 T/B ratio

B3: M27-E05 (antibody, V domains shown)
VH: EVQLLESGGGLVQPGGSLRLSCAASGFTFSWYLMIWVRQAPGKGLEWVSYIYPSGGFTYYADSVKGRFTISRDNSKNTLYLQMNSLRAEDMAVYYCARTEGPLSWGYGMDVWGQGTTVTVSS
VL: not shown
  ELISA (T/B): 41.3 T/B ratio

B4: M35-G04 (antibody, V domains shown)
VH: EVQLLESGGGLVQPGGSLRLSCAASGFTFSYYHMSWVRQAPGKGLEWVSVISPSGGSTKYADSVKGRFTISRDNSKNTLYLQMNSLRAEDTAVYYCARGGSSDYAWGSYRRPYYFDYWGQGTLVTVSS
VL: DIQMTQSPATLSLSPGERATLSCRASQSVSSYLAWYQQKPGQAPRLLIYDASNRATGIPARFSGSGSGTDFTLTISSLEPEDFAVYYCQQRSNWPRGFTFGPGTKVDIK
  ELISA (T/B): 11.1 T/B ratio

B5: M38-F02 (antibody, V domains shown)
VH: EVQLLESGGGLVQPGGSLRLSCAASGFTFSYYMMVWVRQAPGKGLEWVSYIYSSGGHTVYADSVKGRFTISRDNSKNTLYLQMNSLRAEDTAVYYCARDLFLYDFWSKGAFDIWGQGTMVTVSS
VL: QSVLTQPPSVSVSPSQTASITCSGEKLGDKYVSWYQQKPGQSPSLVICEDSRRPSGIPERFSGSNSGNTATLTISGAQPMDEADYYCQAWDSSTAIFGPGTKVTVL
  ELISA (T/B): 33.5 T/B ratio

B6: M41-A11 (antibody, V domains shown)
VH: EVQLLESGGGLVQPGGSLRLSCAASGFTFSHYRMSWVRQAPGKGLEWVSSIYPSGGRTVYADSVKGRFTISRDNSKNTLYLQMNSLRAEDTAVYYCAKDKFEWRLLFRGIGNDAFDIWGQGTMVTVSS
VL: QSVLTQPPSVSVSPGQTASITCSGDKLGDKYTSWYQQRPGQSPVLVIYQDIKRPSGIPERFSGSNSGNTATLTISGTQAMDEADYYCQAWDSPNARVFGSGTKVTVL
  ELISA (T/B): 28 T/B ratio

B7: M73-D06 (antibody, V domains shown)
VH: EVQLLESGGGLVQPGGSLRLSCAASGFTFSRYEMYWVRQAPGKGLEWVSSISSSGGPTAYADSVKGRFTISRDNSKNTLYLQMNSLRAEDTAMYYCAKGTPKWELLLRSIYIENAFDIWSQGTMVTVSS
VL: QSELTQPPSASETPSQRVTISCSGSSSNIGSNTVSWFQQLPGSAPRLLIYNDHRRPSGVPDRFSGSKSGTSASLVISGLQSQDEADYYCSAWDDSLNGVVFGGGTKLTVL
  ELISA (T/B): 4 T/B ratio

B8: M110-C12 (antibody, V domains shown)
VH: EVQLLESGGGLVQPGGSLRLSCAASGFTFSYYEMDWVRQAPGKGLEWVSGISSSGGHTAYADSVKGRFTISRDNSKNTLYLQMNSLRAEDTATYYCARERRSSSRARYYYGMDVWGQGTTVTVSS
VL: DIQMTQSPLSLSVTPGEPASISCRSSLSLLHSNGYNYLDWYVQRPGQSPQLLMYLSSTRASGVPDRFSGSGSGTDFTLEISRVEAEDVGVYYCMQPLETPPTFGGGTKVEIK
  ELISA (T/B): 2.4 T/B ratio

B9: M142-H08 (antibody, V domains shown)
VH: EVQLLESGGGLVQPGGSLRLSCAASGFTFSAYSMIWVRQAPGKGLEWVSYIRPSGGRTTYADSVKGRFTISRDNSKNTLYLQMNSLRAEDTAVYYCARGGLLLWFRELKSNYFDYWGQGTLVTVSS
VL: DIQMTQSPSSLSAFVGDRVTITCRASQPIDNYLNWYHQKPGKAPKLLIYAASRLQSGVPSRLSGSGFGTDFTLTISSLQPEDFGNYYCQQSYTVPYTFGGGTKVEIR
  ELISA (T/B): 29.9 T/B ratio

B10: M145-D01 (antibody, V domains shown)
VH: EVQLLESGGGLVQPGGSLRLSCAASGFTFSYYHMSWVRQAPGKGLEWVSVISPSGGSTKYADSVKGRFTISRDNSKNTLYLQMNSLRAEDTAVYYCARGGSSDYAWGSYRRPYYFDYWGQGTLVTVSS
VL: DIQMTQSPATLSLSPGERATLSCRASQSVSSYLAWYQQKPGQAPRLLIYDASNRATGIPARFSGSGSGTDFTLTISSLEPEDFAVYYCQQRSNWPRGFTFGPGTKVDIK
  ELISA (T/B): 6.2 T/B ratio

B11: M145-D11 (antibody, V domains shown)
VH: EVQLLESGGGLVQPGGSLRLSCAASGFTFSHYRMSWVRQAPGKGLEWVSSIYPSGGRTVYADSVKGRFTISRDNSKNTLYLQMNSLRAEDTAVYYCAKDKFEWRLLFRGIGNDAFDIWGQGTMVTVSS
VL: QSVLTQPPSVSVSPGQTASITCSGDKLGDKYTSWYQQRPGQSPVLVIYQDIKRPSGIPERFSGSNSGNTATLTISGTQAMDEADYYCQAWDSPNARVFGSGTKVTVL
  ELISA (T/B): 40 T/B ratio

B12: M146-E12 (antibody, V domains shown)
VH: EVQLLESGGGLVQPGGSLRLSCAASGFTFSRYIMHWVRQAPGKGLEWVSSISPSGGLTSYADSVKGRFTISRDNSKNTLYLQMNSLRAEDTAVYYCAREFENAYHYYYYGMDVWGQGTTVTVSS
VL: DIQMTQSPSSLSASVGDRVTITCRASGDIGNALGWYQQKPGKAPRLLISDASTLQSGVPLRFSGSGSGTEFTLTISSLQPEDFATYYCLQGYNYPRTFGQGTKLEIR
  ELISA (T/B): 40.6 T/B ratio

B13: M152-A12 (antibody, V domains shown)
VH: EVQLLESGGGLVQPGGSLRLSCAASGFTFSPYFMGWVRQAPGKGLEWVSGIGPSGGSTTYADSVKGRFTISRDNSKNTLYLQMNSLRAEDTAVYYCAREGPPYSSGWYRGLRQYHFDYWGQGTLVTVSS
VL: DIQMTQSPSSLSASVGDRVTITCRASQSISSYLSWYQQRPGKAPNLLIYAASSLQSGVPSRFSGSGSGTDFTLTISSLQPEDFATYYCQQSISIPRTFGQGTKVEVK
  ELISA (T/B): 19 T/B ratio

B14: M160-G12 (antibody, V domains shown)
VH: EVQLLESGGGLVQPGGSLRLSCAASGFTFSHYLMTWVRQAPGKGLEWVSYISPSGGHTIYADSVKGRFTISRDNSKNTLYLQMNSLRAEDTAVYYCARVARGIAARSRTSYFDYWGQGTLVTVSS
VL: DIQMTQSPSFLSASVGDRVTITCRASQGISSYLAWYQQKPGKAPKLLIYAASTLQSGVPSRFSGSGSGTEFTLTISSLQPEDFATYYCQQLNSYPLTFGGGTKVEIK
  ELISA (T/B): 38.3 T/B ratio

B15: M161-C11 (antibody, V domains shown)
VH: EVQLLESGGGLVQPGGSLRLSCAASGFTFSDYAMKWVRQAPGKGLEWVSSISSSGGVTQYADSVKGRFTISRDNSKNTLYLQMNSLRAEDTAVYYCAREEDYSSSWYSRRFDYYYGMDVWGQGTTVTVSS
VL: QSALTQPPSVSVSPGQTASITCSGDKLGDKYVSWYQQRPGQSPVLVIYQDTKRPSGIPERFSGSNSGNTATLTISGTQAVDEADYYCQAWDSSTYVFGGGTKVTVL
  ELISA (T/B): 41.8 T/B ratio

B16: M162-A04 (antibody, V domains shown)
VH: EVQLLESGGGLVQPGGSLRLSCAASGFTFSHYIMMWVRQAPGKGLEWVSGIYSSGGITVYADSVKGRFTISRDNSKNTLYLQMNSLRAEDTAVYYCAYRRTGIPRRDAFDIWGQGTMVTVSS
VL: DIQMTQSPSTLSASVGDRVTITCRASQSISSWLAWYQQKPGKAPNLLIYKASTLESGVPSRFSGSGSGTEFTLTISSLQPDDFATYYCQQYNTYWTFGQGTKVEIK
  ELISA (T/B): 11.4 T/B ratio
